Consider one protein from doi:10.1101/2022.10.28.512841 (bioRxiv, 2022).

The series concerns the molecule itself. The series is described as follows: SEC-SAXS. (In gel filtration, larger molecules generally elute earlier.)

B1: gated spinach aquaporin SoPIP2;1 (natural protein)
chain: MSKEVSEEAQAHQHGKDYVDPPPAPFFDLGELKLWSFWRAAIAEFIATLLFLYITVATVIGHSKETVVCGSVGLLGIAWAFGGMIFVLVYCTAGISGGHINPAVTFGLFLARKVSLLRALVYMIAQCLGAICGVGLVKAFMKGPYNQFGGGANSVALGYNKGTALGAEIIGTFVLVYTVFSATDPKRSARDSHVPILAPLPIGFAVFMVHLATIPITGTGINPARSFGAAVIFNSNKVWDDQWIFWVGPFIGAAVAAAYHQYVLRAAAIKALGSFRSNPTN
Turning to B1, the binding result is given as “binds”.
